The values that follow come from US20250066455A1 (published 2025).

As usually defined, the Kd is a measure of binding affinity in units of concentration. High values mean a looser complex, low ones a tighter complex.

For the experiment, the target named is SARS-CoV-2 WT Spike (SARS-CoV-2, UniProt P0DTC2 14-1208). The experiment can be described thus: BLI. For orientation: In BLI a coated tip is dipped into the sample, and binding shifts an interference pattern.

B1: REGN10987 (antibody, V domains shown)
VH: QVQLVESGGGVVQPGRSLRLSCAASGFTFSNYAMYWVRQAPGKGLEWVAVISYDGSNKYYADSVKGRFTISRDNSKNTLYLQMNSLRTEDTAVYYCASGSDYGDYLLVYWGQGTLVTVSS
VL: QSALTQPASVSGSPGQSITISCTGTSSDVGGYNYVSWYQQHPGKAPKLMIYDVSKRPSGVSNRFSGSKSGNTASLTISGLQSEDEADYYCNSLTSISTWVFGGGTKLTVLR
Turning to B1, the Kd is under 0.01 nM.

B2: REGN10933 (antibody, V domains shown)
VH: QVQLVESGGGLVKPGGSLRLSCAASGFTFSDYYMSWIRQAPGKGLEWVSYITYSGSTIYYADSVKGRFTISRDNAKSSLYLQMNSLRAEDTAVYYCARDRGTTMVPFDYWGQGTLVTVSS
VL: DIQMTQSPSSLSASVGDRVTITCQASQDITNYLNWYQQKPGKAPKLLIYAASNLETGVPSRFSGSGSGTDFTFTISGLQPEDIATYYCQQYDNLPLTFGGGTKVEIKR
For the molecule B2, the Kd was under 0.01 nM.
